Experiment [1] has as its target UBQLN UBL domain UBL (Homo sapiens) (UniProt Q9UMX0). As to conditions: cited from earlier work.
Experiment [2] addresses UBQLN1 loaded with Ub-Omp25 (UniProt Q9UMX0). Briefly: pull-down; client (Omp25 or Ub-Omp25) translated in lysate lacking ubiquitin, UbcH5 and the major TMD-binding factors, supplemented with 40 nM recombinant FLAG-tagged UBQLN1 variant; affinity purified via the FLAG tag; autoradiography for the client, immunoblot for proteasome subunit α7.
Experiment [3] has as its target FLAG-tagged construct containing the Omp25 TMD, translated in the PURE system. Briefly: co-sedimentation; Omp25 TMD construct translated in the PURE system with 35S-methionine and 15 uM recombinant chaperone; sucrose gradient, autoradiography.

With “UBQLN UBA domain UBA (from UniProt Q9UMX0)”, the Kd in experiment [1] is 80 µM. Take “proteasome, endogenous in rabbit reticulocyte lysate (from UniProt G1SZ14 1-326) (complex)”: the fold proteasome association relative to UBQLN1 loaded with Omp25 in experiment [2] lay in the range of 2 to 3 fold. “recombinant UBQLN1 (FLAG-tagged) (from UniProt Q9UMX0 1-589) (natural protein)”: the stoichiometry N in experiment [3] is 1.

By Kd is commonly meant a measure of binding affinity in units of concentration. Broadly, the stoichiometry N is the number of molecules, sites or subunits per partner or assembly.

(Values after article PMC4942676.)
